Patent US6384302

What was measured:
Test in all cases: cell-based or functional assay
[1] = target: Helicoverpa zea (H. zea) midgut trypsin (Helicoverpa zea)
[2] = target: bovine trypsin (bovine) (UniProt P00760)
[3] = target: trypsin (source not stated)

Substance | IA = Inhibitory Activity in IUs (BAPNA hydrolysis) [1] [IU] | SA = Specific Activity in IU/mg protein (IU/mg protein) [1] | IA = Inhibitory Activity in IUs (BAPNA hydrolysis) [2] [IU] | SA = Specific Activity in IU/mg protein (IU/mg protein) [2] | inhibition activity after heating at 70° C. for 5 minutes [3] [IU/mg TI] | inhibition activity before heating [3] [IU/mg TI]
Affinity purified P. macroloba trypsin inhibitor (PmTI) | 7.46 | 3.73 | 4.96 | 2.48 |  | 
Bowman-Birk trypsin inhibitor (soybean) (from UniProt P01055 40-110) |  | 2.1 |  | 5.03 |  | 
Crude P. macroloba seed extract | 0.245 | 0.079 | 0.119 | 0.038 | 3.7 | 2.2
Kunitz trypsin inhibitor (soybean) (from UniProt P01070 25-205) |  | 0.845 |  | 1.02 |  | 
P. macroloba large trypsin inhibitor (PmLTI) | 7.86 | 3.93 | 5.57 | 2.78 |  | 
P. macroloba small trypsin inhibitor (PmSTI) | 8.54 | 14.2 | 30.6 | 50.9 |  | 
